We go through one substance from US20250025549A1.

Usually IC50 stands for the concentration that inhibits the measured activity by half. A word on the EC50: it is the concentration at which the effect is half-maximal. Higher therefore signals a need for much substance.

For experiment [1], the target named is dipeptidyl peptidase IV (DPP4), the MERS-CoV receptor, His-tagged (human) (UniProt P27487).
Experiment [2] shares this target. The experiment can be described thus: ELISA, spike coated, His-tagged hDPP4 titrated.

Chain of dipeptidyl peptidase IV (DPP4), the MERS-CoV receptor, His-tagged (human) (P27487 29-766 limits assumed): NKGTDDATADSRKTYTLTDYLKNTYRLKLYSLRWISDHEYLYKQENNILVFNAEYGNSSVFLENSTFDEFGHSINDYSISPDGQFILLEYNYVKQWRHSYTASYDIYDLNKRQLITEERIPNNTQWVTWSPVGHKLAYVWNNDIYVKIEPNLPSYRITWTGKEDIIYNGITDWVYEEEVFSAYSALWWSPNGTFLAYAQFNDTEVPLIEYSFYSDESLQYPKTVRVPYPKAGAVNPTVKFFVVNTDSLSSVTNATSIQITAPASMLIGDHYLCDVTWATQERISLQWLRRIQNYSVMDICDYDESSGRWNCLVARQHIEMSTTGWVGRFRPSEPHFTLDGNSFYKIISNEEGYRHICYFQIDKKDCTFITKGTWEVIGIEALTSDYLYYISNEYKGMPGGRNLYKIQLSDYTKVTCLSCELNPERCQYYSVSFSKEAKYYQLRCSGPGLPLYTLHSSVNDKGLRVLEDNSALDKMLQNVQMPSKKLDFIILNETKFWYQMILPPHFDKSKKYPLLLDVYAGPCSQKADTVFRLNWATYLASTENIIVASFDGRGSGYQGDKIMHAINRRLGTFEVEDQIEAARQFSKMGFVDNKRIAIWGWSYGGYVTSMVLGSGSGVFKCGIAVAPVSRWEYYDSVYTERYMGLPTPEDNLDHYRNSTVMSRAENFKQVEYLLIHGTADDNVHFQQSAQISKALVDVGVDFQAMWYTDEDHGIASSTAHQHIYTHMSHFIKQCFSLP

Substance “BV2373 CoV S polypeptide (SEQ ID NO: 87) (from UniProt P0DTC2 14-1273) (other; other documents disagree on this pair)” displayed an IC50 in experiment [1] of more than 5 µg/mL. The same substance had an EC50 in experiment [2] of more than 5 µg/mL.
